± gives the standard error. This sample holds only a part of the variants without activity.
B1: glmS ribozyme (parent)
chain: AUAAAAGCGCCAGAACUACAGAAAUGUAGUUGACGAGGAGGAGGUUUAUCGAAUUUUCGGCGGAUGCCUCCAAA

Assays:
Conditions in all cases: with glucosamine-6-phosphate
glucosamine-6-phosphate [1] = variants of: B1; test: self-cleavage kobs at 160 uM GlcN6P; higher = faster cleavage; RNA array
In short: (§1)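 Glucosamine-6-phosphate in HEPES/KCl/Mg(OAc)2 buffer, at 40 μM to 10 mM, was flowed over barcoded ribozyme variants transcribed in situ by E. coli RNA polymerase on sequenced MiSeq chips. Tracking was through a hybridised Cy3 probe at 37 °C. kobs, kcat and KM came from exponential decay fits and weighted Michaelis–Menten fits of normalised per-tile medians.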

glucosamine-6-phosphate [2] = variants of: B1; test: self-cleavage kobs at 640 uM GlcN6P; higher = faster cleavage; RNA array
In short: as §1

glucosamine-6-phosphate [3] = variants of: B1; test: self-cleavage kobs at 2500 uM GlcN6P; higher = faster cleavage; RNA array
In short: as §1

glucosamine-6-phosphate [4] = variants of: B1; test: self-cleavage kobs at 10000 uM GlcN6P; higher = faster cleavage; RNA array
In short: as §1

Row | Variant | self-cleavage kobs at 160 uM GlcN6P (glucosamine-6-phosphate [1]) [s⁻¹] | self-cleavage kobs at 640 uM GlcN6P (glucosamine-6-phosphate [2]) [s⁻¹] | self-cleavage kobs at 2500 uM GlcN6P (glucosamine-6-phosphate [3]) [s⁻¹] | self-cleavage kobs at 10000 uM GlcN6P (glucosamine-6-phosphate [4]) [s⁻¹]
1 | A14G A33C C70A | < 1e-05 |  |  | 
2 | U30A A53U C70U | 0.000167 ± 4.8e-05 | 0.000821 ± 0.0002 |  | 
3 | A14U U55A U69A | 0.000101 ± 2.7e-05 |  | 8.95e-05 ± 1.1e-05 | 4.58e-05 ± 2e-05
4 | A33C A42U U46C U54G | < 1e-05 |  | < 1e-05 | 
5 | U30G G32U A36U G60A U69C C71A | < 1e-05 |  |  | 
6 | A33C G35C U45G A64C | < 1e-05 |  | < 1e-05 | 
7 | G32C G51A C61G | < 1e-05 |  |  | 
8 | C16U A36U U55C U56C C58G | < 1e-05 |  | < 1e-05 | 
9 | A14U U30A C50G C58G | 0.000116 ± 2.1e-05 | 9.41e-05 ± 1.7e-05 | 0.000131 ± 2.3e-05 | 
10 | C34A G41A C71U | < 1e-05 |  |  | 
11 | G29U U69C | 3.84e-05 ± 1.5e-05 | 0.000356 ± 9e-05 | 0.000114 ± 3.1e-05 | 
12 | A33C G35A G51C | < 1e-05 | < 1e-05 | < 1e-05 | 
13 | A14U G29A A52C C61U C68A C71G | 0.000123 ± 3.3e-05 | 9.79e-05 ± 2.9e-05 | 0.00014 ± 5e-05 | 
14 | G32C A64G | < 1e-05 |  | 5.42e-05 ± 1.9e-05 | 
15 | A15G C16G A33C U49G A53U | < 1e-05 | < 1e-05 |  | 
16 | U31C G35C G40C | < 1e-05 |  | < 1e-05 | < 1e-05
17 | G29C G59U C68U | 0.000173 ± 8.1e-05 |  |  | 
18 | G32A G37C | < 1e-05 | < 1e-05 | < 1e-05 | < 1e-05
19 | U30G G35U G44U U46G U65C | < 1e-05 | < 1e-05 | < 1e-05 | 
20 | G35A U46G | < 1e-05 | < 1e-05 | < 1e-05 | 
21 | U30A G41C U49A | < 1e-05 | < 1e-05 | < 1e-05 | < 1e-05
22 | A14U A15G U49A A53U | < 1e-05 |  |  | < 1e-05
23 | A15C A33G G44A U47C G62A | < 1e-05 |  |  | 
24 | G35A G63C | < 1e-05 | < 1e-05 | < 1e-05 | 
25 | G29C U69A | 4.08e-05 ± 1.4e-05 | 8.01e-05 ± 1.7e-05 | 2.32e-05 ± 1e-05 | 

Row | Variant | self-cleavage kobs at 160 uM GlcN6P (glucosamine-6-phosphate [1]) [s⁻¹] | self-cleavage kobs at 640 uM GlcN6P (glucosamine-6-phosphate [2]) [s⁻¹] | self-cleavage kobs at 2500 uM GlcN6P (glucosamine-6-phosphate [3]) [s⁻¹] | self-cleavage kobs at 10000 uM GlcN6P (glucosamine-6-phosphate [4]) [s⁻¹]
26 | G29C U69G | 3.65e-05 ± 9.9e-06 | 9.83e-05 ± 1.7e-05 | 4.13e-05 ± 1.1e-05 | 
27 | C34A C67G C68A | 6.53e-05 ± 1.9e-05 | 6.33e-05 ± 2e-05 | 0.000284 ± 8.7e-05 | 
28 | A14C G51A C58A C68G | 6.87e-05 ± 1.6e-05 | 8.48e-05 ± 2.9e-05 | 8.83e-05 ± 2.5e-05 | 
29 | A33G G40C G63U | < 1e-05 | < 1e-05 | < 1e-05 | 
30 | A33U U69G | 5e-05 ± 2e-05 | 0.000237 ± 6.3e-05 |  | 
31 | C16G A33C C71U | < 1e-05 | < 1e-05 | < 1e-05 | 
32 | A33C G62A G63A | < 1e-05 |  | < 1e-05 | 
33 | G32C G60U | < 1e-05 | < 1e-05 | < 1e-05 | < 1e-05
34 | A15C A33C U55C | < 1e-05 | < 1e-05 | < 1e-05 | 
35 | G32A A52U G63C | < 1e-05 | < 1e-05 | < 1e-05 | 
36 | U31A U46G G66A | 6.92e-05 ± 2.9e-05 | 0.000303 ± 0.00015 | 0.000638 ± 0.00022 | 
37 | U30C A36C C50G G59C | 0.000229 ± 9.7e-05 |  |  | 
38 | G32C U69A | < 1e-05 | 0.00639 ± 0.0029 |  | 2.46e-05 ± 1.2e-05
39 | C16G G44C C68U | < 1e-05 |  | < 1e-05 | 
40 | A33U A53U U69G | 3.89e-05 ± 1.8e-05 | 0.000215 ± 7.6e-05 | 5.61e-05 ± 2.6e-05 | 
41 | U30C G41C U49G G51U C58A | < 1e-05 |  |  | 
42 | C16A C50G U55C G63C C70G | 0.000129 ± 4.7e-05 | 0.00119 ± 0.00038 |  | 
43 | U31G A33C U46G A53G G59A G63A | < 1e-05 |  | < 1e-05 | 
44 | U30G G35C A36C A52U | < 1e-05 |  | < 1e-05 | 
45 | G32C A42G A64U | < 1e-05 | < 1e-05 | < 1e-05 | 
46 | C34A U45A C70U | < 1e-05 | < 1e-05 | < 1e-05 | 
47 | A14U A39C A52C | < 1e-05 | < 1e-05 |  | 
48 | G32U C50G | 5.71e-05 ± 2e-05 |  |  | 
49 | U30A G63A | < 1e-05 | < 1e-05 | < 1e-05 | < 1e-05
50 | U30C A42U U49A | < 1e-05 | < 1e-05 | < 1e-05 | 

Row | Variant | self-cleavage kobs at 160 uM GlcN6P (glucosamine-6-phosphate [1]) [s⁻¹] | self-cleavage kobs at 640 uM GlcN6P (glucosamine-6-phosphate [2]) [s⁻¹] | self-cleavage kobs at 2500 uM GlcN6P (glucosamine-6-phosphate [3]) [s⁻¹] | self-cleavage kobs at 10000 uM GlcN6P (glucosamine-6-phosphate [4]) [s⁻¹]
51 | U30G A36U | < 1e-05 | < 1e-05 |  | 
52 | U30C G35C | < 1e-05 | < 1e-05 | < 1e-05 | < 1e-05
53 | U30C U54A C68A | 7.12e-05 ± 2.1e-05 |  | 5.33e-05 ± 2.5e-05 | 
54 | G35A G43A U47C U56C | < 1e-05 | < 1e-05 |  | 
55 | U31G G35A C67A | < 1e-05 | < 1e-05 |  | 
56 | G35A C50A | < 1e-05 | < 1e-05 | < 1e-05 | 
57 | U30C C50U C70G | 5.6e-05 ± 1.7e-05 | 0.000134 ± 3.3e-05 | 0.000173 ± 3.3e-05 | 
58 | C16U G60C | < 1e-05 | < 1e-05 | < 1e-05 | 
59 | U30C C58U C67G C71A | 0.000188 ± 5.3e-05 | 0.000584 ± 0.00013 | 0.000197 ± 4.3e-05 | 
60 | C16U G29C C50G | 0.000111 ± 3.4e-05 |  | 6.6e-05 ± 2.7e-05 | 
61 | A15U A33U C50U G51U G62U G63A C70U | 9.07e-05 ± 2.6e-05 | 0.000118 ± 3.6e-05 | 7.13e-05 ± 2.3e-05 | 
62 | A33G A52G U56A | < 1e-05 |  |  | < 1e-05
63 | A14U A15G G35C | < 1e-05 |  | < 1e-05 | < 1e-05
64 | A14G G29C C61U C71U | < 1e-05 | < 1e-05 |  | < 1e-05
65 | G32C U46A C50A A52U | < 1e-05 | < 1e-05 | < 1e-05 | 
66 | A33U C34A C58U | < 1e-05 |  | < 1e-05 | 
67 | C16A A52U | < 1e-05 |  |  | 3.13e-05 ± 8.8e-06
68 | A15G A36U C50A G60A | < 1e-05 | < 1e-05 |  | 
69 | U31C G62A | < 1e-05 | < 1e-05 | < 1e-05 | < 1e-05
70 | A15G C16G A42G C67G | 7.28e-05 ± 3.4e-05 | 0.000348 ± 6.7e-05 | 0.000115 ± 3.5e-05 | 0.000521 ± 0.00022
71 | A15C C34A G44U | < 1e-05 | < 1e-05 | < 1e-05 | 
72 | A33C U69G | < 1e-05 |  | < 1e-05 | < 1e-05
73 | A33C U69C | < 1e-05 | < 1e-05 |  | 
74 | A33G A42C | < 1e-05 | < 1e-05 | < 1e-05 | < 1e-05
75 | C16A A33G | < 1e-05 |  |  | < 1e-05

Row | Variant | self-cleavage kobs at 160 uM GlcN6P (glucosamine-6-phosphate [1]) [s⁻¹] | self-cleavage kobs at 640 uM GlcN6P (glucosamine-6-phosphate [2]) [s⁻¹] | self-cleavage kobs at 2500 uM GlcN6P (glucosamine-6-phosphate [3]) [s⁻¹] | self-cleavage kobs at 10000 uM GlcN6P (glucosamine-6-phosphate [4]) [s⁻¹]
76 | U30G G40U A42C C58A | < 1e-05 | < 1e-05 | < 1e-05 | 
77 | U31A A42U U45A G62U | < 1e-05 |  | < 1e-05 | 
78 | A15G A33U G40U C67G | < 1e-05 |  | < 1e-05 | 
79 | U31C G40A A53U | 9.65e-05 ± 3.1e-05 | 7.74e-05 ± 1.7e-05 |  | 
80 | A33G G44U | < 1e-05 | < 1e-05 |  | < 1e-05
81 | C34A A42G G66U | < 1e-05 | < 1e-05 | < 1e-05 | 
82 | G26U A52G | 9.82e-05 ± 2.9e-05 |  | 0.000726 ± 0.00017 | 
83 | A15C G32U G35U | < 1e-05 |  | < 1e-05 | 
84 | G35A A42C | < 1e-05 | < 1e-05 |  | < 1e-05
85 | C34G U49G A53G G63C | < 1e-05 | < 1e-05 |  | 
86 | U31G A52C | < 1e-05 | < 1e-05 |  | 
87 | U31G G35A | < 1e-05 | < 1e-05 |  | < 1e-05
88 | U30A G35C C50G C68A C71U | 8.36e-05 ± 2.8e-05 | 0.00197 ± 0.00057 | 0.000671 ± 0.00025 | 
89 | U30G G43A U47G | < 1e-05 | < 1e-05 | < 1e-05 | 
90 | A33U G63U | < 1e-05 | < 1e-05 | < 1e-05 | < 1e-05
91 | A33U G37U G43A | < 1e-05 |  |  | 
92 | A14U U65C U69C | < 1e-05 |  |  | 
93 | G32U G51U G66A | < 1e-05 | < 1e-05 |  | 
94 | A14G U57A | 4.7e-05 ± 1.1e-05 | 0.000139 ± 2.9e-05 | 0.000418 ± 4.7e-05 | 
95 | A33C U46C U56C G59C | < 1e-05 | < 1e-05 | < 1e-05 | 
96 | G35A C68U C70G | < 1e-05 | < 1e-05 | < 1e-05 | 
97 | A14G A53C | 0.00202 ± 0.00065 | 0.00488 ± 0.0012 | 0.01 ± 0.0023 | 0.0384 ± 0.016
98 | A33C G41C G60A | < 1e-05 | < 1e-05 | < 1e-05 | 
